Stoichiometry N data for one molecule are collected here from PMC10636204.

In this assay the target is T1, mouse TMEM63B (purified, GFP tag removed) (mouse), Q3TWI9.
T1 chain: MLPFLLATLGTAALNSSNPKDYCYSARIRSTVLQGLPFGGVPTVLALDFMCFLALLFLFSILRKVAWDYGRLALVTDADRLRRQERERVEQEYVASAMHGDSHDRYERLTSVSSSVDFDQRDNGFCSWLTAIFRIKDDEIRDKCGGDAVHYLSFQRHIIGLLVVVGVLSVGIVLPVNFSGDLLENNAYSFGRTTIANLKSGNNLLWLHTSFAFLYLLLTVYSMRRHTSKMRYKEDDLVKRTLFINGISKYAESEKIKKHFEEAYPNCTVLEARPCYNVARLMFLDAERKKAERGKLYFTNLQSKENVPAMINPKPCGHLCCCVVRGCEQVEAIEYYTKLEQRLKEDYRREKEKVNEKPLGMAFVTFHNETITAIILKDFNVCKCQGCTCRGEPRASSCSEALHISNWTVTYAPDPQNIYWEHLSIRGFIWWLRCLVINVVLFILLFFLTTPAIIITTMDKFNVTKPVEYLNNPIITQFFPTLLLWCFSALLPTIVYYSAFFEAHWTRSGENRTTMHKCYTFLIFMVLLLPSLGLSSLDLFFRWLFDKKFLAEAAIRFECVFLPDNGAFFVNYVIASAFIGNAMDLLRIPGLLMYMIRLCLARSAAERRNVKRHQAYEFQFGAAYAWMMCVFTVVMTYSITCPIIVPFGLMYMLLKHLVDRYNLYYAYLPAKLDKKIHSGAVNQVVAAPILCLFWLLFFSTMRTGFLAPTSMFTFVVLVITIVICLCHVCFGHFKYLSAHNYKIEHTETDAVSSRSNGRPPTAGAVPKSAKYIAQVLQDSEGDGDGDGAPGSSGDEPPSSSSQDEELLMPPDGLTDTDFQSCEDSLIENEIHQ
Nature of the assay: cryo-EM 2D classification; purified mouse TMEM63B; 2D classification of particles, top/bottom views. The conditions noted are these: remark: other sources report otherwise.

B1: mouse TMEM63B (purified, GFP tag removed), Q3TWI9 1-832 (natural protein)
chain: MLPFLLATLGTAALNSSNPKDYCYSARIRSTVLQGLPFGGVPTVLALDFMCFLALLFLFSILRKVAWDYGRLALVTDADRLRRQERERVEQEYVASAMHGDSHDRYERLTSVSSSVDFDQRDNGFCSWLTAIFRIKDDEIRDKCGGDAVHYLSFQRHIIGLLVVVGVLSVGIVLPVNFSGDLLENNAYSFGRTTIANLKSGNNLLWLHTSFAFLYLLLTVYSMRRHTSKMRYKEDDLVKRTLFINGISKYAESEKIKKHFEEAYPNCTVLEARPCYNVARLMFLDAERKKAERGKLYFTNLQSKENVPAMINPKPCGHLCCCVVRGCEQVEAIEYYTKLEQRLKEDYRREKEKVNEKPLGMAFVTFHNETITAIILKDFNVCKCQGCTCRGEPRASSCSEALHISNWTVTYAPDPQNIYWEHLSIRGFIWWLRCLVINVVLFILLFFLTTPAIIITTMDKFNVTKPVEYLNNPIITQFFPTLLLWCFSALLPTIVYYSAFFEAHWTRSGENRTTMHKCYTFLIFMVLLLPSLGLSSLDLFFRWLFDKKFLAEAAIRFECVFLPDNGAFFVNYVIASAFIGNAMDLLRIPGLLMYMIRLCLARSAAERRNVKRHQAYEFQFGAAYAWMMCVFTVVMTYSITCPIIVPFGLMYMLLKHLVDRYNLYYAYLPAKLDKKIHSGAVNQVVAAPILCLFWLLFFSTMRTGFLAPTSMFTFVVLVITIVICLCHVCFGHFKYLSAHNYKIEHTETDAVSSRSNGRPPTAGAVPKSAKYIAQVLQDSEGDGDGDGAPGSSGDEPPSSSSQDEELLMPPDGLTDTDFQSCEDSLIENEIHQ
What is called stoichiometry N is a count of units in the complex or per binding partner. As to B1, the stoichiometry N is 2.
